Experimental data: patent US20250011434A1, “ASYMMETRIC BISPECIFIC ANTIBODY (UMG2/CD1A-CD3E) FOR THE IMMUNOLOGICAL TREATMENT OF CORTICAL-DERIVED CD1A-EXPRESSING T-CELL ACUTE LYMPHOBLASTIC LEUKEMIAS (T-ALL)” (UNIVERSITA' DEGLI STUDI MAGNA GRAECIA DI CATANZARO, published 2025)

Target: CD1a (Homo sapiens (Human), UniProt P06126)
Assay: titration experiments on cortical, CD1a-expressing T-ALL cell lines (apparent Kd, average)

B1: asymmetric bispecific antibody UMG2/CD1a-CD3ε BTCE (bispecific antibody)
heavy 1: not shown
heavy 2: not shown
light: DIQMTQTTSSLSASLGDRVTISCSASQDISNYLDWYQQKPDGTVRLLIYYTSSLHSGVPSRFSGSGSGTAFSLTIINLEPEDVATYYCHQYSNLPYTFGGGTKLEIKRTVAAPSVFIFPPSDEQLKSGTASVVCLLNNFYPREAKVQWKVDNALQSGNSQESVTEQDSKDSTYSLSSTLTLSKADYEKHKVYACEVTHQGLSSPVTKSFNRGEC
B1 gave a Kd of 0.014 µg/mL.
